Assays:
[1] = target: T1, nucleosome with the 185-bp DNA fragment (human, UniProt P0C0S8 2-130; P62807 2-124; P68431 2-136; P62805 2-103); test: MST; 185-bp nucleosome
[2] = target: T1, nucleosome with the 185-bp DNA fragment; test: nucleosome with 185-bp DNA

| Kd [1] [nM] | Kd [2] [nM] | Binder |
| --- | --- | --- |
| 202 | 202 | NSD2 E1099K mutant protein (973-1226) (domain or fragment) KLQREARETQESERKPPPYKHIKVNKPYGKVQIYTADISEIPKCNCKPTDENPCGFDSECLNRMLMFECHPQVCPAGEFCQNQCFTKRQYPETKIIKTDGKGWGLVAKRDIRKGEFVNEYVGELIDKEECMARIKHAHENDITHFYMLTIDKDRIIDAGPKGNYSRFMNHSCQPNCETLKWTVNGDTRVGLFAVCDIPAGTELTFNYNLDCLGNEKTVCRCGASNCSGFLGDRPKTSTTLSSEEKGKKTKKKTR |
| 70 | 70 | NSD2 T1150A mutant protein (973-1226) (domain or fragment) KLQREARETQESERKPPPYKHIKVNKPYGKVQIYTADISEIPKCNCKPTDENPCGFDSECLNRMLMFECHPQVCPAGEFCQNQCFTKRQYPETKIIKTDGKGWGLVAKRDIRKGEFVNEYVGELIDEEECMARIKHAHENDITHFYMLTIDKDRIIDAGPKGNYSRFMNHSCQPNCEALKWTVNGDTRVGLFAVCDIPAGTELTFNYNLDCLGNEKTVCRCGASNCSGFLGDRPKTSTTLSSEEKGKKTKKKTR |
| 88 | 88 | wild-type NSD2 protein (973-1226) (domain or fragment) KLQREARETQESERKPPPYKHIKVNKPYGKVQIYTADISEIPKCNCKPTDENPCGFDSECLNRMLMFECHPQVCPAGEFCQNQCFTKRQYPETKIIKTDGKGWGLVAKRDIRKGEFVNEYVGELIDEEECMARIKHAHENDITHFYMLTIDKDRIIDAGPKGNYSRFMNHSCQPNCETLKWTVNGDTRVGLFAVCDIPAGTELTFNYNLDCLGNEKTVCRCGASNCSGFLGDRPKTSTTLSSEEKGKKTKKKTR |
